We go through one substance from patent publication US20070293659A1.

For the assay, the target named is Human interleukin-2 (IL-2) (human) (UniProt P60568). Kind of assay: SPR (BIAcore 3000), data not shown.

With “oriented (Or) Fab'602: Fab' fragment of MAB602 biotinylated in the hinge region”, the Kd is 0.1 nM.

Broadly, the Kd is the constant that tells how readily two partners part at equilibrium. High values mean lower affinity, low ones higher affinity.
